Experimental findings from paper PMC2928791 (PLoS Pathogens, 2010) are described below.

The target of experiment [1] is CAV20 non-structural protein 2C^ATPase (wt) (coxsackie A virus 20 (CAV20)). Kind of experiment: co-IP.
Another experiment concerns the target T1, PV GST-2C^ATPase (poliovirus (PV; the paper's PV is type …, UniProt P03300 1128-1456).
T1 sequence: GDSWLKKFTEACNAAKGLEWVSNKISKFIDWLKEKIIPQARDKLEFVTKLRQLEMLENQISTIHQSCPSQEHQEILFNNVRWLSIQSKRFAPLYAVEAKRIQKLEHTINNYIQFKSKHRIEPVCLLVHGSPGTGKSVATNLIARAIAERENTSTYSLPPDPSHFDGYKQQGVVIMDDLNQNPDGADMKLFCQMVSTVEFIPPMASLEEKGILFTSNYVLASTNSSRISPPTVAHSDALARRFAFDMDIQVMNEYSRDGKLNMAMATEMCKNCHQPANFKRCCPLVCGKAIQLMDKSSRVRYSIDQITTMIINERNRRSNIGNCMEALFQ
Put plainly: […] (50 mM Tris-HCl pH 7.5, 140 mM NaCl, 0.1% Triton X-100, […]. The note with it: both partners purified.

Consider “CAV20 structural protein VP3 (wt) (natural protein)”, for which, in experiment [1], the percent of the level in the CAV20 2C^ATPase and CAV20 VP3 Co-IP reaction was found to be 100%.

B1: PV His-tagged VP3 (natural protein)
chain: GLPVMNTPGSNQYLTADNFQSPCALPEFDVTPPIDIPGEVKNMMELAEIDTMIPFDLSATKKNTMEMYRVRLSDKPHTDDPILCLSLSPASDPRLSHTMLGEILNYYTHWAGSLKFTFLFCGFMMATGKLLVSYAPPGADPPKKRKEAMLGTHVIWDIGLQSSCTMVVPWISNTTYRQTIDDSFTEGGYISVFYQTRIVVPLSTPREMDILGFVSACNDFSVRLLRDTTHIEQKALAQ
On to B1, for which, in the experiment with PV GST-2C^ATPase, the binding result is listed as “binds”.
